Assay results as given in patent US20240252667A1.

Legend:
[1] = molecular target: human insulin receptor extracellular domain (HIR ECD) (human) (UniProt P06213); assay: ELISA, HIR ECD plated, biotinylated goat anti-human IgG detection
[2] = molecular target: human insulin receptor extracellular domain (HIR ECD) (human) (UniProt P06213); assay: ELISA, HIR ECD plated; against HIR Ab alone
[3] = molecular target: human insulin receptor extracellular domain (HIR ECD) (human) (UniProt P06213); assay: ELISA, HIR ECD plated (HIR receptor assay)

Row | EC50 [1] | reduction in receptor binding affinity [2] | EC50 [3] | Substance
1 | 0.81 nM | – | – | HIR Ab-GUSB fusion protein (GUSB fused to the carboxyl terminus of the HIR Ab heavy chain) (from UniProt P08236 23-633) (antibody)
2 | – | 95% | 4.8 nM | GUSB-HIR Ab fusion protein (GUSB fused to the amino terminus of the HIR Ab heavy chain) (from UniProt P08236 23-633) (antibody)
